In general, koff refers to the rate constant with which the complex falls apart. For orientation: kon means the second-order rate constant of association.

This test addresses recombinant human α1A/βIII tubulin (human) (UniProt Q71U36). Briefly: in vitro microtubule dynamics assay.

For “recombinant human α1A/βIII tubulin (from UniProt Q71U36 1-451; Q13509 1-450) (complex)”, the critical concentration came to 0.94 µM, the koff amounted to 3.2 s⁻¹ and the kon came out at 3.48e+06 M⁻¹ s⁻¹.

The record behind these values is publication PMC8476856.
